Experimental findings from patent US9395368B2, “Methods, agents and peptides for inducing an immune response to matrix metalloproteinase-2 expressing tumors” (New York University, priority 2010, dated 2016) are described below.

For the test, the system named is Cord blood-derived CD4+/CD25- cells. The test is described as follows: Priming of naive CD4+ T cells to Melan-A/MART-1 or NY-ESO-1 with DCs pre-incubated with MMP-2. In kind it is cell-based, human. The protocol: (A) Cord blood-derived CD4^+/CD25^− cells were stimulated with autologous poly(I:C)-matured DCs pulsed with overlapping peptides spanning either Melan-A/MART-1 or NY-ESO-1. Prior to poly(I:C) addition, DCs were incubated with or without MMP-2 (active or heat-inactivated) for 1 h. MMP-2 enzymatic activity was controlled (FIG. 13C-D). After 15 days, CD4^+ T cells were stimulated with the Melan-A/MART-1 or NY-ESO-1 peptide pools (2 μM) for 6 h before intracellular staining of cytokines. Percentages of antigen-specific CD4^+ T cells, secreting indicated cytokines, are represented for all donors. (B) Contour plots showing percentages of cytokine-producing CD4^+ T cells are shown for representative donor CB45 primed to Melan-A/MART-1. Percentage of secreting cells upon peptide stimulation was considered specific/positive when it exceeded by more than twofold the background (cytokine-secreting cells in the absence of stimulation) and had more than 0.5% of responding cells (after background subtraction) for at least one cytokine. For each cytokine, 2 paired t-tests were used to compare priming in the presence of active MMP-2 to either priming in the absence of active MMP-2 or with HI MMP-2. The Bonferroni adjustment was used for multiple comparisons. P values≦0.025 (*) were considered statistically significant using a Bonferroni correction for 2 comparisons.
T Cell culture, stimulation and priming. Peripheral blood mononuclear cells (PBMCs) were purified from healthy donor-(HD) or cord blood donor-(CB) derived buffy coats (New York Blood Center) by Ficoll-Paque Plus (GE Healthcare) centrifugation. CD4^+/CD25^− cells were enriched (>90%) by magnetic cell sorting (Miltenyi Biotec) and primed/stimulated for 12-15 days either with irradiated (35Gy) autologous CD4^− cells or with autologous mature DCs in IMDM (GIBCO) supplemented with 1 mM HEPES (Life Technologies), 2 mM L-glutamine (Sigma), streptomycin (100 UI/mL)/penicillin (100 μg/mL) (Sigma) and 5% heat inactivated pooled human serum (PHS; Valley Biomedical) in the presence of rhIL-2 (10 UI/mL) and IL7 (5 ng/mL) (R&D Systems). Antigen presenting cells (CD4^− cells or DCs) were loaded either with peptides (2 μM) or with the MMP-2 protein (10 μg/mL) for 2 and 5 h, respectively. DCs were matured using the TLR3 agonist poly(I:C) at 5 μg/mL/10^6 DCs (Amersham). To generate T cell clones, we originally relied on our published methodology (Godefroy et al., 2006; Godefroy et al., 2007; the entire contents of each of which is incorporated herein by reference), involving enrichment of IFNγ-secreting cells upon short-term culture and peptide stimulation to generate MMP-2 responsive clones. Briefly, CD4^+ T cells were stimulated by CD4^− cells irradiated and pulsed with peptides for 12 days in the presence of rhIL-2 and rhIL-7. CD4^+ T cells were then restimulated with peptides for 3 hours before capturing IFNγ-secreting specific cells using a bispecific antibody coating T cells and capturing produced IFNγ. Positive cells were purified magnetically before being cloned. Although MMP-2-specific cells could be isolated, it was realized that IFNγ secretion was marginal compared to their secretion of IL-4 and TNFα. IFNγ-secreting cells in response to MMP-2 peptide pool were enriched by cytokine-guided magnetic cell sorting (Miltenyi Biotec) as described above and cloned the following day by limiting dilution in the presence of irradiated allogeneic PBMCs, 1 μg/mL phytohemagglutinin-L (Sigma) and 150 UI/mL rhIL-2. Tumor infiltrating lymphocytes (TILs) were provided by Pr. F. Jotereau and B. Dréno. They were obtained from tumor-invaded lymph nodes of melanoma patients (stage Mb) and expanded ex vivo. These patients received autologous TILs and IL-2 infusions in a clinical trial (Labarriere et al., 2002). This protocol was approved by the Institutional Ethics Committee and registered with regulatory state authority in France (Nantes). […]

Where [1] appears, read: DCs pre-incubated before poly(I:C) maturation.

B1: active MMP-2: Purified human MMP-2 (mixture of the proenzyme (50%) and the active form (50%)) purchased from Biomol (protein, listed as Homo sapiens)
chain: MEALMARGALTGPLRALCLLGCLLSHAAAAPSPIIKFPGDVAPKTDKELAVQYLNTFYGCPKESCNLFVLKDTLKKMQKFFGLPQTGDLDQNTIETMRKPRCGNPDVANYNFFPRKPKWDKNQITYRIIGYTPDLDPETVDDAFARAFQVWSDVTPLRFSRIHDGEADIMINFGRWEHGDGYPFDGKDGLLAHAFAPGTGVGGDSHFDDDELWTLGEGQVVRVKYGNADGEYCKFPFLFNGKEYNSCTDTGRSDGFLWCSTTYNFEKDGKYGFCPHEALFTMGGNAEGQPCKFPFRFQGTSYDSCTTEGRTDGYRWCGTTEDYDRDKKYGFCPETAMSTVGGNSEGAPCVFPFTFLGNKYESCTSAGRSDGKMWCATTANYDDDRKWGFCPDQGYSLFLVAAHEFGHAMGLEHSQDPGALMAPIYTYTKNFRLSQDDIKGIQELYGASPDIDLGTGPTPTLGPVTPEICKQDIVFDGIAQIRGEIFFFKDRFIWRTVTPRDKPMGPLLVATFWPELPEKIDAVYEAPQEEKAVFFAGNEYWIYSASTLERGYPKPLTSLGLPPDVQRVDAAFNWSKNKKTYIFAGDKFWRYNEVKKKMDPGFPKLIADAWNAIPDNLDAVVDLQGGGHSYFFKGAYYLKLENQSLKSVKFGSIKSDWLGC
With B1, under “10 cord blood donors, 15 days”, the “antigen-specific CD4+ T cells secreting IL-4, mean” value is reported as 2.50% and the “antigen-specific CD4+ T cells secreting IL-13, mean” value came to 0.08%. For the same molecule, under setting [1], the “IL-4, mean of differences versus priming without MMP-2” value is listed as 1.85 and the “IL-13, mean of differences versus priming without MMP-2” value amounted to 0.07. For the same molecule, the “production of type-1 cytokines (IFNγ and IL-2) upon peptide re-stimulation” value (Melan-A/MART-1- and NY-ESO-1-specific primed CD4+ T cells) was “failed to produce”.
